Experimental findings from publication PMC12099206 are described below.

The target in test [1] is CmFTL3 expressed in chrysanthemum protoplasts (Chrysanthemum morifolium).
The target in test [2] is CmFDL1 expressed in chrysanthemum protoplasts (Chrysanthemum morifolium).

For the substance “CmTCP7 expressed in chrysanthemum protoplasts (natural protein)”, the decrease in Luc activity of CmCDM111Lpro:Luc in chrysanthemum protoplasts (dual-luciferase), CmTCP7, CmFTL3 and CmFDL1 co-transfected against CmFTL3 and CmFDL1 in test [1] and in test [2] was 80% each time.
